Data reported in PMC7138851, “Quantitative assessment of the determinant structural differences between redox-active and inactive glutaredoxins” (Nature Communications, 2020).

Experiments:
Experiment in all cases: purified protein, by the assay type
Settings in all cases: pH 8.0; 25.0 °C
[1] = substrate: N[C@@H](CCC(=O)N[C@@H](CS)C(=O)NCC(=O)O)C(=O)O; design: GSSCys oxidoreductase assay, steady-state kinetics, coupled NADPH consumption at 340 nm, pH 8.0, 25 °C
Method: (§1) Steady-state kinetics of wild-type and mutant ScGrx7 and HsGrx5^C122S in the GSSCys and [compound left out] assays were determined spectrophotometrically by monitoring the consumption of NADPH at 340 nm and 25 °C using a thermostated Jasco V-650 UV/vis spectrophotometer[11],[19],[25]. Fresh stock solutions of NADPH, GSH, GR, and GSSCys or [compound left out] were prepared in assay buffer containing 0.1 M Tris/HCl, 1 mM EDTA, pH 8.0 before each experiment. Both assays were performed with 0.1 mM NADPH and 1 U/ml ScGR. The following final protein concentrations were used for Y110F/H/A (5–150 nM), D144A/K (10 nM), E147A/K (10 nM), R153A/E (25–50 nM), ScGrx7^WP (20 nM), ScGrx7^loop (up to 1.4 µM), ScGrx7^WP+loop (up 2.6 µM), HsGrx5^C122S (up to 15 µM), HsGrx5^RR (up to 12 µM), HsGrx5^loop (up to 1.6 µM), and HsGrx5^RR+loop (up to 4.0 µM). For the GSSCys assays, GSH was varied between 50 µM and 1.5 mM at fixed GSSCys concentrations (25, 50, 100, and 150 µM). NADPH, GSH, and GR were mixed in assay buffer before Grx was added and a baseline was recorded for 30 s. All GSSCys assays were started by the addition of GSSCys. The absorbance of a reference cuvette containing all components but no Grx was measured in parallel and subtracted from the obtained Grx activity. For the [compound left out] assays, GSH was varied between 100 µM and 2.0 mM at fixed concentrations of [compound left out] (0.18, 0.37, 0.55, and 0.74 mM). NADPH, GSH, and [compound left out] were preincubated in assay buffer for 2 min before GR was added and a baseline was recorded for 30 s. All [compound left out] assays were started by the addition of enzyme. Kinetic data were analyzed in Excel and SigmaPlot 13 by nonlinear and linear regression according to Michaelis–Menten, Lineweaver–Burk, Eadie–Hofstee, and Hanes theory[11],[19],[25]. 13 Supplementary Figure 7 Supplementary Figure 7 | GSSCys assay steady-state kinetics of ScGrx7 wild-type enzyme and D144X mutants. (a) Michaelis-Menten plots of the GSH-dependent reaction velocity at different initial concentrations of GSSCys. […]

[2] = substrate: N[C@@H](CCC(=O)N[C@@H](CSSC[C@H](N)C(=O)O)C(=O)NCC(=O)O)C(=O)O; design: GSSCys oxidoreductase assay, steady-state kinetics, coupled NADPH consumption at 340 nm, pH 8.0, 25 °C
Method: as §1

[3] = substrate: N[C@@H](CCC(=O)N[C@@H](CSSC[C@H](N)C(=O)O)C(=O)NCC(=O)O)C(=O)O; design: GSSCys oxidoreductase assay, steady-state kinetics, coupled NADPH consumption at 340 nm, pH 8.0, 25 °C; remark: listed apart in the source
Method: as §1

[4] = substrate: N[C@@H](CCC(=O)N[C@@H](CSSC[C@H](N)C(=O)O)C(=O)NCC(=O)O)C(=O)O; design: GSSCys oxidoreductase assay, steady-state kinetics, coupled NADPH consumption at 340 nm, pH 8.0, 25 °C; remark: listed apart in the source
Method: as §1

[5] = substrate: N[C@@H](CCC(=O)N[C@@H](CS)C(=O)NCC(=O)O)C(=O)O; design: Disulfide oxidoreductase assay, steady-state kinetics, coupled NADPH consumption at 340 nm, pH 8.0, 25 °C
Method: Steady-state kinetics of wild-type and mutant ScGrx7 and HsGrx5^C122S in the GSSCys and [compound left out] assays were determined spectrophotometrically by monitoring the consumption of NADPH at 340 nm and 25 °C using a thermostated Jasco V-650 UV/vis spectrophotometer[11],[19],[25]. Fresh stock solutions of NADPH, GSH, GR, and GSSCys or [compound left out] were prepared in assay buffer containing 0.1 M Tris/HCl, 1 mM EDTA, pH 8.0 before each experiment. Both assays were performed with 0.1 mM NADPH and 1 U/ml ScGR. The following final protein concentrations were used for Y110F/H/A (5–150 nM), D144A/K (10 nM), E147A/K (10 nM), R153A/E (25–50 nM), ScGrx7^WP (20 nM), ScGrx7^loop (up to 1.4 µM), ScGrx7^WP+loop (up 2.6 µM), HsGrx5^C122S (up to 15 µM), HsGrx5^RR (up to 12 µM), HsGrx5^loop (up to 1.6 µM), and HsGrx5^RR+loop (up to 4.0 µM). For the GSSCys assays, GSH was varied between 50 µM and 1.5 mM at fixed GSSCys concentrations (25, 50, 100, and 150 µM). NADPH, GSH, and GR were mixed in assay buffer before Grx was added and a baseline was recorded for 30 s. All GSSCys assays were started by the addition of GSSCys. The absorbance of a reference cuvette containing all components but no Grx was measured in parallel and subtracted from the obtained Grx activity. For the [compound left out] assays, GSH was varied between 100 µM and 2.0 mM at fixed concentrations of [compound left out] (0.18, 0.37, 0.55, and 0.74 mM). NADPH, GSH, and [compound left out] were preincubated in assay buffer for 2 min before GR was added and a baseline was recorded for 30 s. All [compound left out] assays were started by the addition of enzyme. Kinetic data were analyzed in Excel and SigmaPlot 13 by nonlinear and linear regression according to Michaelis–Menten, Lineweaver–Burk, Eadie–Hofstee, and Hanes theory[11],[19],[25].

B1: ScGrx7 (Saccharomyces cerevisiae S288C) (protein)
chain: SVNESITTHHPDSLVTFDNSGNAPGTHQSVHDTVNTQDKEAEEVDKNSGDAEFDAAAEYNKIMEQSPMIVFSKTGCPYSKKLKALLTNSYTFSPSYYVVELDRHEHTKELQDQIEKVTGRRTVPNVIIGGTSRGGYTEIAELHKNDELLDSFKKWSDGAFTVKANSQSESA
notes: E. coli XL1-Blue, pQE30; N-terminal MRGS(H)6 tag
For B1, the Km [1] was 744 µM, the kcat [1] was 206 s⁻¹ and the Km [2] was 257 µM. For the same protein, the Km [3] was 155 ± 29.9 µM, the kcat [3] was 114 ± 13 s⁻¹ and the kcat/Km [3] was 735000 M⁻¹ s⁻¹. It also gave a Km [4] of 266 ± 129 µM, a kcat [4] of 163 ± 54.8 s⁻¹ and a kcat/Km [4] of 612000 M⁻¹ s⁻¹. For the same protein, the Km [5] was 1100 ± 100 µM, the kcat [5] was 72.9 ± 3.4 s⁻¹ and the kcat/Km [5] was 66500 M⁻¹ s⁻¹.
